These results are taken from article PMC1849897.

Where two headings read alike, the source gives them in different places.

What all share (assay): filter binding
The target of series [1] is T1, Py-DmBLM (Drosophila Bloom's syndrome helicase) (Drosophila, UniProt Q9VGI8 1-1487).
The target in series [2] is T1, Py-DmBLM (Drosophila Bloom's syndrome …). The source holds these as a separate data set.
The target is the same in series [3]. This is another data set of the same source.

T1 sequence (Q9VGI8 whole entry): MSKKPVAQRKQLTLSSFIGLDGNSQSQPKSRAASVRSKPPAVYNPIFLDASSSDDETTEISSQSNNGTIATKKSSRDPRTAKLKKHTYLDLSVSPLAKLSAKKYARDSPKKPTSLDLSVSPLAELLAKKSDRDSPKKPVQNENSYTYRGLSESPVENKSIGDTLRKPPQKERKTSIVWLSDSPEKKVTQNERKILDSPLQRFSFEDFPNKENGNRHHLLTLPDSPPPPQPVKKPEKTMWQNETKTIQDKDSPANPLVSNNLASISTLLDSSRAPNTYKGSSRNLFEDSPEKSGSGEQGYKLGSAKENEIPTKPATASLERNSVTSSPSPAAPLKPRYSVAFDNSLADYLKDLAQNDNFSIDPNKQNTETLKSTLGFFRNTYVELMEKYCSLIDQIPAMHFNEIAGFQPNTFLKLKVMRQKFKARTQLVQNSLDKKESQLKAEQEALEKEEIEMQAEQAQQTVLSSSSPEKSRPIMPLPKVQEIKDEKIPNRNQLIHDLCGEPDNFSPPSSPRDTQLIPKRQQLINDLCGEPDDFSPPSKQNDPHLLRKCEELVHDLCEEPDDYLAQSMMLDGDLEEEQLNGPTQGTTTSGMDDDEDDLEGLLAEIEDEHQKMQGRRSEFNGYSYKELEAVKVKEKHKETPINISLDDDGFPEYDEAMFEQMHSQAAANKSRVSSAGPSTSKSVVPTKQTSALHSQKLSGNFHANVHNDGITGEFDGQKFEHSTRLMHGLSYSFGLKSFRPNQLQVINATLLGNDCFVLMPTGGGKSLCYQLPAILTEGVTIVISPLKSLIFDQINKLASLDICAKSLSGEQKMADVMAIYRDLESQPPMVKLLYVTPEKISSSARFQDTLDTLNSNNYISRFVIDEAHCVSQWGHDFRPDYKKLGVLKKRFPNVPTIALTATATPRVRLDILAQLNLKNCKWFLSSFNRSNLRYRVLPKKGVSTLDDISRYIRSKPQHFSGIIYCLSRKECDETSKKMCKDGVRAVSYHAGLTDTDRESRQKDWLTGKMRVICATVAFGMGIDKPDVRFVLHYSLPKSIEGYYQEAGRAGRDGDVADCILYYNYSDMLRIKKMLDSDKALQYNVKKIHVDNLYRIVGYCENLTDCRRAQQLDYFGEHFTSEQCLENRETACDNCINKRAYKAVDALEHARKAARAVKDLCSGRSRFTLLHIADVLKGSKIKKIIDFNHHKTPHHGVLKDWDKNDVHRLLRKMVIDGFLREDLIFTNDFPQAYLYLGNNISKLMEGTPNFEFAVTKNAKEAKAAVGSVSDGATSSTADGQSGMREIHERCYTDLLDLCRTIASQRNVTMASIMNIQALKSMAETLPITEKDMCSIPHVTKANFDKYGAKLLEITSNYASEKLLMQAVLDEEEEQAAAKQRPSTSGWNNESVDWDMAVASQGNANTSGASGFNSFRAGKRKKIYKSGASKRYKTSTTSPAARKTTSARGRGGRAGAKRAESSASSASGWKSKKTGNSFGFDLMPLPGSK

B1: 3' Tail (o1/o2) (mixed)
DNA 1: GACGCTGCCGAATTCTGGCTTGCTAGGACATCTTTGCCCACGTTGACCCG
DNA 2: ATGTCCTAGCAAGCCAGAATTCGGCAGCGTC
As for B1, the binding result in series [1] is reported as “binds”.

B2: Forked (o1/o3) (mixed)
DNA 1: GACGCTGCCGAATTCTGGCTTGCTAGGACATCTTTGCCCACGTTGACCCG
DNA 2: CGAATAATCGTCATGTCCTAGCAAGCCAGAATTCGGCAGCGTC
On to B2, for which, in series [2], the binding result is given as “binds”. Consider GACGCTGCCGAATTCTGGCTTGCTAGGACATCTTTGCCCACGTTGACCCG (ssDNA) [o1], for which the binding result in series [3] is listed as “binds”.
